As usually defined, the Kd is the free concentration of one partner at which half of the binding sites on the other are occupied at equilibrium, for simple one-to-one binding. The low end stands for a tighter complex, the high end for a looser complex.

Consider 1 substance from article doi:10.1101/2021.04.24.441256.

The target of the assay is the engineered RGA5_HMAs. The assay is described as follows: SPR.

On to “6xHis-tagged AVR-PikD (from UniProt C4B8B8 22-113) (natural protein)”, for which the Kd lay in the range of 0.5 to 1.6 nM.
